Measured values as given in article PMC3676807, “A Chimeric UDP-Glucose Pyrophosphorylase Produced by Protein Engineering Exhibits Sensitivity to Allosteric Regulators” (International Journal of Molecular Sciences, 2013).

What was measured:
[1] = target: T1, SmuGalU-Δ294EcoGlgC (chimeric UDP-Glc PPase); experiment: Pi release after pyrophosphatase, Malachite Green; Hill fit; assay type: biochemical, Streptococcus mutans; Escherichia coli; conditions: allosteric activator; 1 mM Glc-1P, 1 mM UTP, 3 mM Mg2+, pH 8.0, 37 °C; read-out: A0.5
T1 construct: gene galU; entire S. mutans GalU fused to the 137 C-terminal residues of E. coli GlgC (from P295); N-terminal His-tag kept; E. coli BL21 (DE3) pLysS; homotetramer ~200 kDa

[2] = target: chimeric SmuGalU-Δ294EcoGlgC (Streptococcus mutans ATCC 25175 | Escherichia coli) (UniProt P0A6V1); experiment: SEC; gel filtration on Superdex 200 (Tricorn 5/200 column), calibrated with protein standards 44-669 kDa; mass of the native protein; buffer not stated
[3] = test system: T1, SmuGalU-Δ294EcoGlgC (chimeric UDP-Glc PPase); experiment: Pi release after pyrophosphatase, Malachite Green; Hill fit; assay type: biochemical, Streptococcus mutans; Escherichia coli; conditions: UDP-Glc synthesis, no effector, 3 mM Mg2+, pH 8.0, 37 °C
Source text: Pi release after pyrophosphatase, Malachite Green; Hill fit on SmuGalU-Δ294EcoGlgC (chimeric UDP-Glc PPase)

[4] = target: UDP-glucose pyrophosphorylase from Streptococcus mutans (SmuGalU) (Streptococcus mutans ATCC 25175); experiment: SEC; gel filtration on Superdex 200 (Tricorn 5/200 column), calibrated with protein standards 44-669 kDa; mass of the native protein; buffer not stated
[5] = substrate: O=c1ccn([C@@H]2O[C@H](COP(=O)(O)OP(=O)(O)OP(=O)(O)O)[C@@H](O)[C@H]2O)c(=O)[nH]1; experiment: Pi release after pyrophosphatase, Malachite Green; Hill fit; assay type: biochemical, Streptococcus mutans; conditions: UDP-Glc synthesis, saturating Glc-1P, 3 mM Mg2+, pH 8.0, 37 °C
[6] = substrate: O=P(O)(O)O[C@H]1O[C@H](CO)[C@@H](O)[C@H](O)[C@H]1O; experiment: as above; assay type: biochemical, Streptococcus mutans; conditions: UDP-Glc synthesis, saturating UTP, 3 mM Mg2+, pH 8.0, 37 °C
[7] = substrate: Cc1cn([C@H]2C[C@H](O)[C@@H](COP(=O)(O)OP(=O)(O)OP(=O)(O)O)O2)c(=O)[nH]c1=O; experiment: as above; assay type: biochemical, Streptococcus mutans; conditions: dTDP-Glc synthesis, 1 mM Glc-1P, 3 mM Mg2+, pH 8.0, 37 °C

In the case of CC(=O)C(=O)O [Pyr], the EC50 [1] is reported as 30 mM.

In the case of O=C(O)[C@H](O)COP(=O)(O)O [3-PGA], the EC50 [1] is reported as 5.4 mM.

For “chimeric SmuGalU-Δ294EcoGlgC (from UniProt P0A6V1 295-431) (enzyme)”, the stoichiometry N [2] was 4.

O=c1ccn([C@@H]2O[C@H](COP(=O)(O)OP(=O)(O)OP(=O)(O)O)[C@@H](O)[C@H]2O)c(=O)[nH]1 [UTP] was tested, and the Km ([3]; saturating Glc-1P) was 240 ± 20 µM.

Work on O=P(O)(O)O[C@H]1O[C@H](CO)[C@@H](O)[C@H](O)[C@H]1O [Glc-1P] yielded a Km ([3]; saturating UTP) of 60 ± 5 µM.

For “UDP-glucose pyrophosphorylase from Streptococcus mutans (SmuGalU) (enzyme)”, the stoichiometry N [4] was 4.

In the case of O=P(O)(O)OC[C@H]1OC(O)(COP(=O)(O)O)[C@@H](O)[C@@H]1O (some centres unmarked) [Fru-1,6-bisP], the EC50 [1] is reported as 2 mM.

B1: SmuGalU (UDP-Glc PPase from S. mutans) (Streptococcus mutans UA159) (protein)
chain: MPSKKVRKAVIPAAGLGTRFLPATKALAKEMLPIVDKPTIQFIVEEALKSGIEDILVVTGKSKRSIEDHFDSNFELEYNLEQKGKTDLLKLVNDTTAINLHFIRQSHPRGLGDAVLQAKAFVGNEPFVVMLGDDLMDITDDKAIPLTRQLMNDYEETHASTIAVMEVPHEDVSAYGVIAPQGEGVSGLYSVDTFVEKPAPKEAPSNLAIIGRYLLTPEIFTILETQEPGAGNEVQLTDAIDTLNKTQRVFAREFKGKRYDVGDKFGFMKTSIDYALKHPQVKEDLKAYIIELGKKLDQKSTQKNSD
notes: full-length, N-terminal His-tag kept (pRSET-B), expressed in E. coli BL21 (DE3), Ni-NTA purified; homotetramer ~150 kDa; gene 921 bp
With B1 the K0.5 [5] was 0.68 ± 0.06 mM, the Vmax [5] was 62.1 µmol/min/mg and the Vmax/Km [5] was 91300 µL/min/mg. It also gave a K0.5 [6] of 0.090 ± 0.005 mM, a Vmax [6] of 62.1 µmol/min/mg and a Vmax/Km [6] of 690000 µL/min/mg. For the same molecule, the K0.5 [7] was 0.54 mM.
